Measurements published in patent publication US20170037088A1 (published 2017).

Columns and labels:
hGHR-Fc (human) = hGHR-Fc (human) (UniProt P10912); assay: ELISA
[1] = target: AC296 (FIX-XTEN_AE864 that lacks an XTEN release site) (UniProt P00740)
[2] = target: AC299 (FIX-XTEN_AE864 with an XTEN release site specific for FXI) (UniProt P00740)
[3] = target: AC300 (FIX-XTEN_AE864 with an XTEN release site specific for thrombin) (UniProt P00740)
glucagon receptor = glucagon receptor (UniProt P47871 26-477, limits assumed); assay: cell-based or functional assay

Sequence of hGHR-Fc (human) (P10912 19-264): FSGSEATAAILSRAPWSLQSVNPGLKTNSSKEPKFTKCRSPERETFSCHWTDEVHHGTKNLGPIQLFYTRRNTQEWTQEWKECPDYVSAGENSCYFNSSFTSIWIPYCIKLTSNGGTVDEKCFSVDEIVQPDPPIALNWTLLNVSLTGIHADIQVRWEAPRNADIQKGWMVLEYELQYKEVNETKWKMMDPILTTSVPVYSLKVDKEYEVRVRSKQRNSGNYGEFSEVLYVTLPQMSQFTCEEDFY

Question: How did the EC50 (hGHR-Fc (human)) turn out when AE912-hGH-AE144 was run?
Answer: Its EC50 is 16.2 nM.

Question: Which results are given for “immobilized thrombin (Thrombin CleanCleave Kit, RECOM-T, Sigma)”?
Answer: Clotting activity (ng/ng), with thrombin [1]: 0.01 ng/ng; Clotting activity (ng/ng), with thrombin [2]: 0.02 ng/ng; Clotting activity (ng/ng), with thrombin [3]: 0.8 ng/ng

B1: glucagon-Y288 (other)
chain: HSQGTFTSDYSKYLDSRRAQDFVQWLMNTGEGSGEGSEGEGSEGSGEGEGSEGSGEGEGGSEGSEGEGGSEGSEGEGGSEGSEGEGSGEGSEGEGGSEGSEGEGSGEGSEGEGSEGGSEGEGGSEGSEGEGSGEGSEGEGGEGGSEGEGSEGSGEGEGSGEGSEGEGSEGSGEGEGSGEGSEGEGSEGSGEGEGSEGSGEGEGGSEGSEGEGSEGSGEGEGGEGSGEGEGSGEGSEGEGGGEGSEGEGSGEGGEGEGSEGGSEGEGGSEGGEGEGSEGSGEGEGSEGGSEGEGSEGGSEGEGSEGSGEGEGSEGSGE
Question: Which “EC50, real-time calcium mobilization (FLIPR)” value (glucagon receptor) does the source give for B1 here?
Answer: Its value is 72 nM.
